# The nanobody polyreactivity screen of Harvey et al. (2022)
# Assay: yeast display, Sf9 membrane polyspecificity reagent, FACS + sequencing; frameworks hold sequencing errors
# Summary of the method: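 Sorting gates, low and high (top ~1%), were placed on anti-HA fluorescence to track expression and on streptavidin fluorescence to track reagent binding. A clone's polyreactivity label is taken from the gate it came out of. The reagent was 10% biotinylated, detergent-solubilized Sf9 membrane, applied for 1 hour at 4 °C to galactose-induced yeast display cells.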
row,Sequence,polyreactivity (PSR sort gate)
1,QVQLVESGGGLVQAGGSLRLSCAASGRTFNPYVMGWYRQAPGKERELVAVITSSGDSTYYADSVKGRFTISRDNAKNTVYLQMNSLKPEDTAVYYCNADYLYYDYDYWGQGTQVTVSS,high polyreactivity
2,QVQLVESGGGLVQAGGSLRLSCAASGLIFYRYTMGWNRQAPGKERELVAGITSGGRTYYADSVKGRFTISRDNAKNTFYLQMNSLKPEDTAVYYCAARYFPARTRYYYWGQGTQVTVSS,high polyreactivity
3,QVQLVESGGGLVQAGVSLRLSCAASGRTFGYNAMGWYRQAPGKERVVVAAITIGGSTNYADSVKGRFTISRDNAKNTVYLQMNSLKPEDTAVYYCAAYDTLLYWVEFYYWGQGTQVTVSS,low polyreactivity
4,QVQLVESGGGLVQAGGRLRLSCAASGSTYYNAMGWYRQAPGKERELVAAIRFRSGSTYYADSVKGRFTISRDNAKNTVYLQMNSLKPEDTAVYYCAAYCRRSYVDSYDIRFDYWGQGTQVTVSS,high polyreactivity
5,QVQLVESGGGLVQAGGSLRLSCAASGSTFDIYAMGWYRQAHGKERELVAVISGGEGSTYYADSVKGRFTISRDNAKNTVYLQMNSLKPEDTAVYYCAADYISPGYWDGEYDCWGQGTQVTVSS,low polyreactivity
6,HVQLVESGGGLVQAGGSLRLSCAASGSTFSAYAMGWDRQAPGKERELVASISYSGSSTYYADSVKGRFTISRDNAKNTVYLHMNSLNPEDTAVSSCAADDRYWGPGGPLSRWSRGMYYWGQGTQVTVSS,high polyreactivity
7,QVQLVESGGGLVQAGGSLRLSCAASGSTFTYYAMGWYRQSPGKERELVAAISWRGGSTYYADSVKGRFTISRDNAKNTVYLQMNSLKPEDNAVYYCAASRTFYRAVTQTGSPMDYWGQGTQVTVSS,high polyreactivity
8,QVPLVESVGGLVQAGGRLRLSCAASGSIFGHNTMGWYREAPGKERELVAAISVSGTRTYYADSVKGRFTISRDNAKNTVYLQMNSLKPEDTAVYYCAAEISRVRQGVAWSYKYEYWGQGTQVTVSS,high polyreactivity
9,QVQLVESGGGLVQAGGSLRLICAASGSTFNSYTMGWYRQAPGKERELVAAISSGGITYYADSEKGRFTISRDNAKNTVYLLMNSLKPEDTAVYYCADRRYRYGYNYWGQGTQVTVSS,high polyreactivity
10,QVQLVESGGGLVQAGGSLRLSCAASGFTFHNNVMGWYRQAPGKERELVATISKSGGSTYYADYVKGRFTISRDNAKNTVYLQMKSLKPEDTAVYYCARRYRDYGRYGYWGQGTQVTVSS,high polyreactivity
11,QVQLVESGGGLVQAGGSLRLSCAASGYTYRYYAMGWYRQAPGKERELVAAISASGGITYYADSVKGRFTISRDNAKNTVDLQMNCLNPEDTAVYYCATTGWGSWFDPYDYWGQGTQVTVSS,high polyreactivity
12,QVQLVESGGGLVQAGGSLRLSCAASGSSFYDNAMGWYRQAPGKERELVAGIRSTGRTYYADSVKGRFTISRDNAKNTVYLQMNSLKPEDTAVYYCAAYVGTYGEYDYWGQGTQVTVSS,low polyreactivity
13,QVQLVESGVCLVQAGRSLRLSCAASGRTFGYYAMGWYRQAPGKERELVAGITLSGGSTYYADSVKGRFTISRDNAKNTVYLQMNSLKPDDTAVYYCAARRRGRAGRDDYWGQGTQVTVSS,high polyreactivity
14,QVQLVESGGGLVQAGGSLRLSCAASGLTFRVYAMGWYRQAPGKERELVAAITGGGGSTYADSVKGRFTISRDNAKNTVYLQMNSLKPEDTAVYYCAAASPWDRDDYWGQGTQVTVSS,low polyreactivity
15,QVQLVESGGGLVQAGGSLRLSCAASGIIFPRYAMGWYIQAPGKERELVAAITKRGGSTYYADSVKGRFTISRDNANNTVYLQMNSLKPEDTAVYYCARVWSRRYGGWYRNYDYWGQGTKVTVSS,high polyreactivity
16,QVQLVESGGGLVQAGGSLRLSCAASGRTFWTNAMGWYRQAPGKEREFVAGISQSGGSTYYADSVKGRFTISRDNAKNTVYLQMNSLKPEDTAVYYCATVKAYRRNYYYWGQGTQVTVSS,high polyreactivity
17,QVQLVESGGGLVQAGGSLRLSCAASGSTFPRYAMGWYRQAPGKERELVAAISSGGSTYYADSVKGRFTISRDNAKNTVYLQMNSLKPEDTAVYYCNRRPGARYNYWGQGTQVTVSS,high polyreactivity
18,QVQLVESWEGLVQAGGRLRLSCAASGSIFRPYTMGWYRQAPGKERELVATISSTGITNYADSVKGRFTISRDNAKITVYLQMNSLKPEVTAVYYCAAGLWFSYDYWGQGTQVTVSS,high polyreactivity
19,QVQLVESGGGLVQAGGSLRLSCAASGISFYRYAMGWYRQAPGKERELVAAITGSGDSTYYADSVKGRFSISRDNAKNTVYLQMNSLKPEDTAVYYCNTDYGRRYDYWGQGTQVTVSS,high polyreactivity
20,QLQLVESGGGLVQAGGSLRLSCAASGFIFETYAMGCYIQAPGKERELVAAISRGASTYYADSVKGRFTISRDNAKNTVYLQMNSLKPEYTAVYYCAAKRLSWHRYGYWGQGTQVTVSS,low polyreactivity
21,QVQLVESGGGLVQAGGSLRLSCAASGRIYTYYAMGWYRQAPGKERELVAAISSGGSTYYADSVKGRFTISRDNAKNTVYLQMNSLKPEDTAVYYCNRVRRGVWRQDDYWGQGTQVTVSS,high polyreactivity
22,QVQLVESGGGLVQAGGRLRLSCAASGITFNSYAMGWYRQAPGKERELVAAITLTGGTTYYADSVKGRFTISRDNAKNTVYLQKNSLKPEDTAVYYCAAQYWWWSRFEYDSWGQGTQVTVSS,low polyreactivity

row,Sequence,polyreactivity (PSR sort gate)
1,QVQLVESGGGLVQAGGSLRLSCAASGSIFSYYAMGWYRQAPGKERELVAAITWSGGTTYYADSVKGRFTISRDNAKNTVYLQMNSLKPEDTAVYYCAADTYDYWYGVWLEYDYWGQGTQVTVSS,high polyreactivity
2,QVEHVDSGRGLVQAGGSLRLSCAASGSIIRSYAMGWYRQAPGKERELVAAISWRGGRTYYADSLKGRFTISRDNAKNTVYLQMNSLKPEDTAVYFCAARKRAQQGTRDHDYWGQGTQLTVSS,high polyreactivity
3,QVQLVESGGGLVQAGGSLRLSCAASGFTFGWYAMGWYRQAPGKERELVAAIDESGGTTYYADSVKGRFTISRDNAKNTVYLQMNSLKPEDTAVYYCAADKKTPYEDDYWGQGTQVTVSS,low polyreactivity
4,QDQRVDSGRGLVQAGGSLRLSCAASGSIFDFYARGWNRPAPGKERELVATISSAGSTYYAESVKGRFTISRDNAKNTVYLQMNSLKPEDTALYYCARGYIRSYWWYHSDRGDFWGQGTQVTVSS,low polyreactivity
5,QVHLVESGGGLVQEGGSLRLSCAASGIIFLWYTMGWYRQAPGKERELVATISWGGGSTYADSVNGRFTISRDNAKNTVYIQMYILQPEDTAVYYCAADNRDFRGQGYDYWGQGTQVTVSS,low polyreactivity
6,QVQLVESGGGLVQSGGSLRLSCAASGITLYWYAMGWYRQAPGKERELVAAITFNGGSTYADSVKGRFTISRDNAKNTVYLQMNSLKPEDTAVYYFASGDGPSLFDYWGQGTQVTVSS,low polyreactivity
7,QVQLVESGGGIVQAGGSHRLSCAASGSIFVSNAMGWYRQAPGKERELVAAISQSGGSTYYADSVKGRFTISRDTAKNTVYLQMNSLNPEDTAVYYCATPIRSGFRIYDYWGQGTQVTVSS,low polyreactivity
8,QVQLVESGGGLVQAGGSLRLSCAASGRTIGSYAMGWYRQAPGKERELVAAITSSCGSTYYADSVKGRFTISRDNAKNTVYLQMNSLKPEDTAVYDCAALWGRRGWWGVSWSFSTGFDYWGQGTQVTVSS,high polyreactivity
9,QVQLVESVGGLVQAGGSLRLSCAASGSTFRRYAMGWSRQAPGKERELVASISRSGGSTYYADSVKGRFTISRDNAKNTVYLQMNSLKPEDTAVYYCAKKPYKSAYDYSSAYDYWGQGTQVTVSS,high polyreactivity
10,QVQLVESGGGLVQAGGSLRLSCAASGSTFTRNTMGWYKQAPGKEREMVAAISRRGGRTDYADSVKGRFTISRDNAKNSVYLQMNSLKPEDTAVYYCAADPITVDQNPRYGYWGQGTQVTVSS,high polyreactivity
11,QVQLVESGGGLVQAGGSLRLSCPASGFILQYNAMGWYRQAPGKERELVAAITRSGVSTHYADSVKGRFTISRDNAKNTVYLQMNSLKPEDTAVYYCARTGHSLYSRYYYWGQGTQVTVSS,low polyreactivity
12,QVQLVESGGGLVQAGGSLGLSCAASGSIFLRYTLGWYRQAPGKERELVAAISWSGGSTYYADSVKGRFTMSRDNAKNNVYLQMNSLKREDTAVYYCNAVYASWSYPGYDYWGQGTQVTVSS,high polyreactivity
13,QFQLVESGGGLVQEGGSLRLSCASSGRTFVSNAMGWYRQAPGKERELVAAISRRSGSTYYADSVKGRFTISRDNAKNTVYLQMNSLKPEDTAVYYCGAVLTRYGYDYWGQGTQVTVSS,high polyreactivity
14,QVQLVESGGGLVQAGGSLLLSCAASGSIFITYAMGWYRLAPGKERELVAAIRDSGDRTYYADSVKGRFTISRDNAKNTVYLQMNSLKPEDTAVYDCNARWQEPLKYDYWGQGTQVTVSS,low polyreactivity
15,QVQLVESGGGLVQAGGSLRLSCAASGSIFTDNAMGWYRQAPGKERELVAAITSNGGSTYYADSVKGRFTISRDNAKNTVYLQMNSLKPEDTAVYYCAADSLYREDDYWGHGTQVTVSS,low polyreactivity
16,QVQLVESGGGLVQAGGSLRLSCSASGRTFTVNAMGWYRQAPGKERELVATITYGGGSTYYADSVKGRFTISRDNAKNTVYVQMNSLKREDTAVYYCYADYWAVNYDYWGQGTQVTVSS,low polyreactivity
17,QVQLVESGGGLVQAGGSLRLSCAASGFTFAGNAMGWYRKAPGKERELVAGISRRGGNTYYADSVKGRFTISRDIAKNTVYLQMNSLKPEDTAVYYCARYSSSYWGQGTQVTVSS,high polyreactivity
18,QVQLVESGGGLVQAGGSLRLSCAASGLIFSRNAMGWYRQAPGKERELVAAISGGGGSTYYADSVKGRFTISRDNAKNTVYLQMNSLKPEDTAVYYCAAKGYWWRTPWIATYDYWGQGTQVTVSS,high polyreactivity
19,QVQLVESGGGLVQAGGSLRLSCAASGRIFRRYVMGWYRQAPGKERELVARIRIRDSNTYYADSVKGRFTISRDNAKNTVYLQMNSLKPEDTAVYYCAVVANYVYSKYDYWGQGTQVTVSS,low polyreactivity
20,QVQLVESGGGLVQAGGSLRLSCAASGRIFGVYAMGWYRQAPGKERELVAAITSSGGRTYYADSVKGRFTISRDNAKNTVYLQMNSLKPEDTAVYYCAALGLSRRGKFNYWGQGTQVTVSS,high polyreactivity
21,QVQLVESGGGLVQAGGSLRLSCAASGSTRRYVMGWYRQAPGKERELVAVISRGGSTYYADSVKGRFTISRDNAKNTVNLQMNSLKPEDTAVYYCNVQPVIPRGGDYWGQGTQVTVSS,high polyreactivity
